Test: yeast display, Sf9 membrane polyspecificity reagent, FACS + sequencing; frameworks hold sequencing errors
Method in brief: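 Sorting gates, low and high (top ~1%), were placed on anti-HA fluorescence to track expression and on streptavidin fluorescence to track reagent binding. A clone's polyreactivity label is taken from the gate it came out of. The reagent was 10% biotinylated, detergent-solubilized Sf9 membrane, applied for 1 hour at 4 °C to galactose-induced yeast display cells.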

Sequence | polyreactivity (PSR sort gate)
QVQLVESGGGLVQAGGSLRLSCAASGRIFGHYAMGWYRQAPGKERELVAAITRSGDRTYYADSVKGRFTISRDNAKNTVYLQMNSLKPEDTEVYYCAADVSAVQGYYYWGQGTQVTVSS | low polyreactivity
QVQLVESGGGLVQAGGSLRLSCAASGSIFYIYAMGWYRQAPGKERELVAGINGGGASTYYADSVKGRFTISRDNAKNTVYLQMNSLKPEDTAVYYCAADIRYLGEYWGQGTQVTVSS | low polyreactivity
QVQLVESGGGLVQAGGSLRLSCAASGFIFAYYAMGWYRQAPGKERELVAAISSRGGTYYADSVKGRFTISRDNAKNTVYLQMNSLKPEDTAVYYCAAASYTWVSRGYEYWGQGTQVTVSS | high polyreactivity
QVQLVESGGGLVQAGGSLRLSCAASGRTFSVYAMGWYRQAPGKEREFVATISYSGVRTSYADSVKGRFTISRDNAKNTGYLQMNSLKPEDTAVYYCNARTYYPVYYRDGGYWGQGTQVTVSS | high polyreactivity
QVQHVESGRGLVQAGGSLRLSCAASGRIFNPYAMGRYRQAPGKERELVAAISRGGRTYYADSVKGRFTISRDNAKNTVYLQMNSLKPEDTAVYYCNAGRGLREDDYWGQGTQVTVSS | low polyreactivity
QVQLVESGGGLVQAGGSLRLSCAASGSIFGTYAMGWYRQAPGKERELVARITRGVSTNYADSVQGRFTISRDNAKNTVYLQMNSLKPEDTAVYYCAAESGNRYEYWGQGTQVTVSS | low polyreactivity
QVQLVESGGGLVQAGGSLRLSCAASGNTFHSNAMGWYRQAPGKERELVAAITPSDGDTYYADSVKGRFTISRDIAKNTVYLQMNSLKPEDTAVYYCAADPEPSYRFDYWGQGTQVTVSS | low polyreactivity
QVQLVESGGGLVQAGGSLRLSCAASGRTFVRNAMGWYRQAPGKERELVAAISRGGRTNYADSVQGRFTISRDNAKNTVYLKMNSLKPEDTAVYYCATGAGYYFDYDYWGQVTQVTVSS | high polyreactivity
QVQLVESGGGLVQAGGSLRLSCAASGSIFASYAMGWYRQAPGKERELVAAISRRAVRTYYADSVKGRFTISRDNAKNTVYLQMNSLKPEDTAVYYCNAASSLPGYDYWGQGTQVTVSS | high polyreactivity
QVQLVESGGGLVQAGGSLRLSCAATGSIFDYYAMGWYRQAPGKERELVAAISLSGGITYYADSVKGRFTISRDNAKNTVYLQMNSLKPEDTEVYYCAADAIDVLYEYDRYDRRYEYWGQGTQVTVSS | low polyreactivity
QVQLVESGGGLVQAGGSLRLSCAASGSTFWNYAMGWYRQAPGKERELVAAITRGSSTNYADSVKGRFTISRDNAKNTVYLQMNSLKPEDTAVYYCANPVGRWSAFYYWGQGTQVTVSS | high polyreactivity
QVQLVESGGGLVQAGGSLRLSCAASGFIFYRYAMGWYRQAPGKERELVAAIRGGGSTYYADSVKGRFTISRDNAKTTVYLQMNSLKPEDTAVYYCNAVYGVRPNRYHYDYWGQGTQVTVSS | low polyreactivity
QVQLVESGGGLVQAGGSLRLSCAASGRTFWTNAMGWYRQAPGKEREFVAGISQSGGSTYYADSVKGRFTISRDNAKNTVYLQMNSLKPEDTAVYYCATVKAYRRNYYYWGQGTQVTVSS | high polyreactivity
QVQLVESGGGLVQAGGSLRLSCAASGSTFKYYAMGWYRQAPGKERELVAAISGTGGNTYYADSVKGRFTISRDNAKNTVYLQMNSLKPEDTAVYYCAAGFRRGWAYTTYDYWGQGTQVTVSS | low polyreactivity
QVQLVESGGGLVQAGGSLRLSCAASGITFNYYDMGWYRQEPWKARELVATINRSGGTTYYADSVKGRFTISRDTAKNTVYLQMNTMKPEDTAVYYCNALYSSRGRYHSGYDYWGQGTQVTVSS | high polyreactivity
QVQLVESAGGLVQAGGSLRLSCAASGRTFGKYAMGWYRQAPGKERELVAAITGGGGTKYADSVKGRFTISRDNAKNTVYLQKNSLKPEDTAVYYCAAASGSRRHGYWGQGTQVTVSS | high polyreactivity
QVQLVESGGGLVQAGGSLRLSCAASGRTFRRSAMGWYRQAPGKEREFVAAISVSGDSTYADSVKGRFTISRDNAKNTVYLQMNSLKPEDTAVYYCAAVYWYCGWKVDYWGQGTQVTLSS | low polyreactivity
QVQLVESGGGLVQAGGSLRLSCAASGRTFKLYAMGWYRQAPGKERELVAAISRSGGSTYYADSVKGRFTISRDNAKNTVYLQMNSLKPEDTAVYYCNRRQGYHGDYDYWGQGTQVTVSS | high polyreactivity
QVQLVESGGGLVQAGGSLRLSCAASGRIFVRYAMGWYRQAPGKERELVAAISYRGGSTYYADSVKGRFTISRDNAKNTVYLQMNSLKPEDTAVYYCAARNSYGNWRYYYWGQGTQVTVSS | high polyreactivity
QVQLVESGGGLVQAGGSLRLSCAASGSTFTPYAMGWYRQAPGKERELVAAINSRGGSTYYADSVKGRFTISRDNAKNTVYLQMHSLKPEDSAVYYCAARTRRRTSAYEYWGQGTQVTVSS | high polyreactivity
QVQLVESGGGLVQAGGSLRLSCAASGGIFQGYAMGWYRQAPGKERELVAGITSRSGSTYYADSVKGRFTISRDNAKNTVYLQMNSLKPEDTAVYYCAVRVYRSYGYWGQGTQVTVSS | high polyreactivity
QVQLVESGGGLVQAGGSLRLSCAASGSTFYGYAMGWYRPAPGKERELVAAITRSGGSTYYADSVKGRFTISRDNAKNTVYLQMNSLKPEDTEVYYCNKYGYKGGVGYDYWGQGTQVTVSS | high polyreactivity

Sequence | polyreactivity (PSR sort gate)
QVQLVETGGGLDQAGGSLRLSCAASGRTSRYAMGWYRQAPGKEMELVAAISRNGRTTSYADSVKGRFTISRDNAKNTVYLQKNSLKPEDTAVDYCNAYSAFVPPTRGYYWGQGTQVTVTS | high polyreactivity
QVQLVESGGGLVQAGGSLRLSCAASGSTFPLYTMGWYRQAPGKEREFVAAISRSGGSTYYADSVKGRFTISRDNAKNTVFLQINSLKPEDTAVYYCDTRSYKSRTYDYWGQGTQVSVSS | high polyreactivity
QVQLVESGGGLVQAGGSLRLSCAASGFTFGSYAMGWYRQAPGKERELVAAISRGGTTYYADSVKGRFTVSRDNAKNTVYLQMNSLKPEDTAVYYCATALIVRGPSRYEYWGQGTQVTVSS | high polyreactivity
QFQLVESGGGIVQAGGRLRLSCAASGSTFFGYAMGWFRQAPGKVRELVAAISSGGSTYYADSVKGRFTISRDNAKNTVYVQMNSLKPEDTAVYYCAAYSYPKKYGYWGQGTQVTVSL | high polyreactivity
QVQLVESGGGLVQAGGRLRLSCAASGRTFYYYPMGWYRQAPGKERELVAAISWSGGSTYYADSVKGRCTISRDNAKNTVYLQLNSLKPDDTAVNYCNAVGSKGYRMDYWGQGTQVTVSA | high polyreactivity
QVQLVESGGGLVQAGGSLRLSCAASGSIFAFYAMGWYRQAPGKERELVAAITASGGRTYYADSVKGRFTISRDNAKNTVYLQMNSLKPEDTAVYYCAAVGGATYSWNGTFLYDYDYWGQGTQVTVSS | low polyreactivity
QDQHVESGGGLVQAGGSLRLSCAASGSNFDVYAMGWYRQAPGKERELVATISYGDSSTYYADSVKGRFTISRDNAKNTVYLQMNSLKPEDTAVYYCAADYLTAPRWRQWGVMDYWGQGTLVTVSS | low polyreactivity
QVQLVESGGGLVQAGGSLRLSCDASGTFYGKTMGWYRQAPGKERELVAVISIDGSTNYADSVKGRFTISRDNAKNTVYLQMNSLKPEDTAVYYCNARNQWRTVGKYDYWGQGTQVTVSS | low polyreactivity
QVQLVESGGGLVQAGGSLRISCAASGRTFRTYAMGWYRQAPGKERELVAAISYSDGSTYYADSVKGRFTISRDNAKNTVYLQMNSLKPEDTAVYYCAIEYEDPYYIRYQVGYDFDYWGQGTQVTVSS | low polyreactivity
QVQLVESGGGLVQAGGILRLSCAASGRTFFVYAMGWYRPAPGTEWEGVAAISNTGGRTYYADSVKGRFTISRDYAKNTVYFQMNSLKPEDTAVYYCAAPYSGPYRSYEYYWGQGTHVTVSS | low polyreactivity
QVQLVDSGGGLVQAGGSLRLSCAASGRIFYQNAMGWYRQAPGKETELVADNSSGGSTYYADSVKGRFTISRDNAKNTVYLQMNSLKPEDNAVYYCNTPSGPGTVGSYRRKWYGYWGQGTQLTVSS | low polyreactivity
QVHLEESGGGLVQAGGSLRLSCAASGFTFGPYAMGWYRQAPGKERELDATIRSGDSTNYADSVKGRFTISRDNAKNTVYLQMNSLKPEDTAVYYCARDARASARRKRYDYWGQGTQVTVSS | low polyreactivity
QVQLLETGGGLVQAGGSLRLSCAASGSIFSRNDMGWYRPAPGKERELVAAITWSGGSTYYADSVKGRFTISRDNAKNTVYLQMNSLKPEDTAVYYCATRYTRVYDCWGQGTLVTVSS | high polyreactivity
QVQLVESGGCLVQAGGSLRLSCAASGSIIGLYPMGWSRQAPGKERELVAAITQSAGSTYYADSVKGRFTISRDNALNTVFLQMNSLKPEDTAVYYCAAVWAYYGYESDYWGQGTQVTVSS | low polyreactivity
QVQLVESGGGLVKAGGSLRLSCAASGFTFNKYAMGWYRQAPGKERESVAAISSSGGSTRYADSVKGRFTISRDNAKNTVYLQMNSLKPADTAVYYCAVYVTPDSGWWLYDYWGQGTHVTVSS | high polyreactivity
QVQLVESVGGLVQAGGSLRLSCGSSGSIFPYNAMGWYRQAPGKERELVATISSGGSTNYADSVKGRFTISRDNAKNTFYLQMNSLKPEDTAFYYCAADVIVFYYAPNYCGDIEYGYWGQGTQVTVSS | low polyreactivity
QVQLVESGGGLVQAGGSLRFSCAASGFTFSYYAMGCYRQAPGKERELVAAISWSGGSTYYADSVKGRFTISRDTAKNTVYLQMNSLKPEDTAVYYCAAYLFYSSRSSYYGYDYWGQGTQVTVSS | high polyreactivity
QVQLVESAGGLVQAGGSLRLSCDASISSINAMGWYRQAPGKEREMVAAIRWSGSSTYYADSVKGRFTISRDNAKNTVYLQMNSLKPEDTAVYYCAARWYARSLTRFNYWGQGTQVTVSS | high polyreactivity
QVQLVESGGGLVLAGGILRLSCAASGSTFKRYAMGWYRQAPGKVRELVAAITWRGGSTYYADSVKGRFTISRDNAKNTVYLQMNSLKPEDTAVYYCAARANYFGWPKSYYYWGQGTQVTVSS | high polyreactivity
QVQLVESGGGLVQAGGSLRLSCAASGLSLQYYAMGWYSQAPGKDRELVAAISSRGVSTYYADSVKGRFTISRDNAKNTVYLQMNSLKPEETAVDYCNARQWRFGFVARGGKYNYWGQGTQVTVSS | high polyreactivity
QVQLVESGGGLVQAGGSLRLSCAASGRIFYPYAMGWYRQAPGKERELVADISSAGSTYYADSVKGRFTISRDNAKNTVYLQMNSLKPEDTAVYYCAADRTSGAYYFRFLYDRDYWGQGTQVTVSS | low polyreactivity

Reference: the nanobody polyreactivity screen of Harvey et al. (2022)
